Data published in patent US20160289285A1 (Molecular Partners, published 2016).
Values joined by “and” are separate entries in the source; they are usually repeats but may differ in a detail not shown here. Identical values can stand only once. Like-named read-outs stand apart in the source and are kept apart here.

B2: human VEGF-A (ligand, UniProt P15692-4 27-191, looked up)
chain: APMAEGGGQNHHEVVKFMDVYQRSYCHPIETLVDIFQEYPDEIEYIFKPSCVPLMRCGGCCNDEGLECVPTEESNITMQIMRIKPHQGQHIGEMSFLQHNKCECRPKKDRARQENPCGPCSERRKHLFVQDPQTCKCSCKNTDSRCKARQLELNERTCRCDKPRR
notes: Recombinant, bought or produced in CHO or Pichia pastoris; also called hVEGF-A

Columns and labels:
human VEGF-A [1] = biological target: B2; experiment: cell-based or functional assay
human HGF [2] = biological target: T1, human HGF (human, UniProt P14210 32-728); experiment: cell-based or functional assay
human VEGF-A [3] = biological target: B2; experiment: ELISA, immobilised target
Procedure: (§1) 100 μl or 50 μl of 20 nM target (VEGF-A, HGF, or serum albumin) in PBS per well were immobilized in a Maxisorp plate (Nunc, Denmark) overnight at 4° C. After washing 5 times with 300 μl PBST (PBS supplemented with 0.1% Tween 20), the wells were blocked with 300 μl PBST-C (PBST supplemented with 0.25% casein) for 2 h at room temperature with shaking at 450 rpm on a Titramax 1000 shaker (Heidolph, Germany). […] After washing 5 times as described above, bound anti-designed ankyrin repeat domain antibody was detected using 100 μl or 50 μl/well goat anti-rabbit IgG-HRP conjugate in PBST-C for 1 h at room temperature with shaking at 450 rpm. After washing 5 times as described above, the ELISA was then developed using 100 μl BM soluble blue POD substrate (Roche, Switzerland), diluted 1:4 in water. The reaction was stopped after 5 min using 100 μl 1 M H₂SO₄. The OD (OD 450 nm-OD 620 nm) was then recorded.
(§2) Cynomolgus monkey VEGF-A is identical to human VEGF-A and was thus not tested separately.

mouse serum albumin = mouse serum albumin (mouse, UniProt P07724 25-608); experiment: ELISA, immobilised target
Procedure: as §1, §2

rat serum albumin = rat serum albumin (rat, UniProt P02770 25-608); experiment: ELISA, immobilised target
Procedure: as §1, §2

dog serum albumin = dog serum albumin (dog, UniProt P49822 25-608); experiment: ELISA, immobilised target
Procedure: as §1, §2

mouse VEGF-A = biological target: T2, mouse VEGF-A (mouse, UniProt Q00731-2 27-190, limits assumed); experiment: ELISA, immobilised target
T2 sequence (looked up): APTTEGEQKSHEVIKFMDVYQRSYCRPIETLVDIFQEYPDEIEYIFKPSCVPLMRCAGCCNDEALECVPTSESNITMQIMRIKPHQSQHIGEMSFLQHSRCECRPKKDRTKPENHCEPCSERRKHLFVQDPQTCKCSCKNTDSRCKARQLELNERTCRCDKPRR
Procedure: as §1, §2

rat VEGF-A = biological target: T3, rat VEGF-A (rat, UniProt P16612-2 27-190, limits assumed); experiment: ELISA, immobilised target
T3 sequence (looked up): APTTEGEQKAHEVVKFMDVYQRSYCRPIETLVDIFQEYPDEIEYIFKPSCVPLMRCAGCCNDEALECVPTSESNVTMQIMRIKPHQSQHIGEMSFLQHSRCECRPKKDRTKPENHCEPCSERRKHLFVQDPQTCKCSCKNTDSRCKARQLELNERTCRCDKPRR
Procedure: as §1, §2

human HGF [4] = biological target: T1, human HGF; experiment: ELISA, immobilised target
Procedure: as §1, §2

cynomolgus monkey HGF = cynomolgus monkey HGF (cynomolgus monkey, UniProt C9E9X5 32-728); experiment: ELISA, immobilised target
Procedure: as §1, §2

mouse HGF = mouse HGF (mouse, UniProt Q08048 33-728); experiment: ELISA, immobilised target
Procedure: as §1, §2

human serum albumin = biological target: T4, human serum albumin (human, UniProt P02768 25-609); experiment: ELISA, immobilised target
T4 construct: For SEC-MALS purified from CSL Behring 20% solution; also called HSA; SA (human)
Procedure: as §1, §2

[5] = biological target: cynomolgus monkey serum albumin (cynomolgus monkey, UniProt A2V9Z4 25-608); experiment: ELISA, immobilised target
Procedure: as §1, §2

human VEGF-A [6] = biological target: B2; experiment: ELISA, immobilised target; remark: listed apart in the source
Human VEGF-C = biological target: T5, Human VEGF-C (human, UniProt P49767 103-227, limits assumed); experiment: ELISA, immobilised target
T5 sequence (looked up): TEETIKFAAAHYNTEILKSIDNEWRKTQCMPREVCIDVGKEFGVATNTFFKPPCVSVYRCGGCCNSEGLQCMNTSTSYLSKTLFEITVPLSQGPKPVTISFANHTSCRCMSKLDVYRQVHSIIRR

Human PDGF-AB = biological target: T6, Human PDGF-AB (human, UniProt P04085 87-211; P01127 82-190, limits assumed); experiment: ELISA, immobilised target
T6 construct: Heterodimer by its name

human HGF [7] = biological target: T1, human HGF; experiment: HGF/cMet competition ELISA as in Example 3
Procedure: (§3) After washing away any unbound substances, an enzyme-linked polyclonal antibody specific for VEGF-A is added to the wells. Following a wash to remove any unbound antibody-enzyme reagent, a substrate solution is added to the wells and color develops in proportion to the amount of VEGF-A bound in the initial step. The color development is stopped and the intensity of the color is measured. […] IC₅₀ values were calculated from such titration curves obtained as described above using Graph Pad Prism software and standard procedures known to the person skilled in the art. For designed ankyrin repeat domains with binding specificity to HGF, a cMet receptor competition assay was performed. For that purpose, 5 nM of human cMet receptor in PBS were immobilized on Maxisorp plates overnight at 4° C. After washing with PBS 0.05% TWEEN 20, the plate was blocked for 2 h with shaking at 300 rpm using PBS containing 0.05% TWEEN 20 and 0.25% Casein at RT. A constant concentration of 5 nM human HGF was pre-incubated for 30 min at RT with a 1000 nM-1 pM of Proteins #23, #26, #28, and #29 (1:4 dilution series each) on a dilution plate in PBS 0.05% TWEEN 20. After washing of the ELISA plate with PBS 0.05% TWEEN, pre-incubated samples were transferred to the ELISA plate and plate was incubated for 2 h at RT with shaking at 300 rpm. […] Readout was done at A450 using A620 as reference wavelength. […]

human VEGF-A [8] = biological target: B2; experiment: VEGF-A competition binding ELISA (FIG. 7C)
Procedure: as §3

[9] = biological target: biotinylated VEGF-A165 (Reliatech, #300-076Bi-L) (UniProt P15692-4 27-191, biotinylated); experiment: VEGF-A/VEGFR-2 competition FRET (HTRF); 10 nM VEGF-R2-Fc, 10 nM biotinylated VEGF-A165
Procedure: Such competition FRET and ELISA assays are well known to the person skilled in the art. […] In parallel, 5 μl of Streptavidin-Tb (streptavidin-Lumi4-terbium cryptate donor, Cisbio #610SATLB) and 5 μl of PAb anti-hIgG-de (D2-conjugated goat anti-Human IgG, Cisbio #61 HFCDAA) were added to 500 μl of PBST-BSA buffer and incubated for 20 minutes (2× reagent). Ten μl/well of 2× reagent were dispensed in a 384-well HTRF white-plate (Thermo Fisher Scientific Inc.) and 5 μl/well of four-time concentration hVEGF-R2-Fc fusion (Reliatech #SFC-008) were added. Five μl of the preincubated competition mixture were then added to wells. The complete reaction mix was incubated in the dark for 1 hour at room temperature before the fluorescence read out using a fluorescence reader. […] The read-out was done for A665 nm and […] wavelength (Excitation 340 nm).

human VEGF-A [10] = biological target: B2; experiment: VEGF-A competition ELISA as in Example 3; competitor: immobilised anti-VEGF-A monoclonal antibody
Procedure: as §3

human HGF [11] = biological target: T1, human HGF; experiment: SPR (ProteOn), human HGF immobilised, injection scheme PBST-hVEGF-A-PBST
Procedure: FIG. 8. SPR analysis of recombinant binding proteins. […] The control injections indicate that no unspecific interaction occurs. RU: resonance units; t: time in seconds.
SPR was measured in a similar way as described in Example 2, with the following setup. 2700 RU human HGF were immobilized on a sensor chip. […] Following this, 100 nM human VEGF-A or PBST were injected for 180 seconds (leading to saturation) followed by a PBST wash of 360 seconds. Finally, 100 nM human serum albumin or PBST were injected for 180 seconds followed by a PBST wash of 600 seconds.

T1 sequence (P14210 32-728 limits assumed): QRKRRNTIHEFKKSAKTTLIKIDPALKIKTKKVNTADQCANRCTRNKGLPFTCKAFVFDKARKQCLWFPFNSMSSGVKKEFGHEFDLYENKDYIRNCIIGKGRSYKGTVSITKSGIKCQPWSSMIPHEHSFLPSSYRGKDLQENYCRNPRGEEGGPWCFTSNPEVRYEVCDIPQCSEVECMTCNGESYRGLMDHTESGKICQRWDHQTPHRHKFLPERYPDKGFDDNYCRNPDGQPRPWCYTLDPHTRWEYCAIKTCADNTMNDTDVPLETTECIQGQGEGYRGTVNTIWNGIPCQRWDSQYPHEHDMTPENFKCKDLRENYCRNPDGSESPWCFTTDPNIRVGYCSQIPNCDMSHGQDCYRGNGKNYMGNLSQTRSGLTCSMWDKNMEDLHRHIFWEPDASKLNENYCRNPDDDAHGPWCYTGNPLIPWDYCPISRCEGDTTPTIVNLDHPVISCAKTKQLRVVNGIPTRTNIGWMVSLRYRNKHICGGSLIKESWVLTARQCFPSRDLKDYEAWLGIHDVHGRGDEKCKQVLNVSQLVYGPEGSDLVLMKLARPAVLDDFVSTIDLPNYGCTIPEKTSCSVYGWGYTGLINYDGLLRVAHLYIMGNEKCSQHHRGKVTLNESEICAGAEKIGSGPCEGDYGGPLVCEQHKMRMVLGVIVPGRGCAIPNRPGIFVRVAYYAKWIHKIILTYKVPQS
Sequence of mouse HGF (Q08048 33-728 limits assumed): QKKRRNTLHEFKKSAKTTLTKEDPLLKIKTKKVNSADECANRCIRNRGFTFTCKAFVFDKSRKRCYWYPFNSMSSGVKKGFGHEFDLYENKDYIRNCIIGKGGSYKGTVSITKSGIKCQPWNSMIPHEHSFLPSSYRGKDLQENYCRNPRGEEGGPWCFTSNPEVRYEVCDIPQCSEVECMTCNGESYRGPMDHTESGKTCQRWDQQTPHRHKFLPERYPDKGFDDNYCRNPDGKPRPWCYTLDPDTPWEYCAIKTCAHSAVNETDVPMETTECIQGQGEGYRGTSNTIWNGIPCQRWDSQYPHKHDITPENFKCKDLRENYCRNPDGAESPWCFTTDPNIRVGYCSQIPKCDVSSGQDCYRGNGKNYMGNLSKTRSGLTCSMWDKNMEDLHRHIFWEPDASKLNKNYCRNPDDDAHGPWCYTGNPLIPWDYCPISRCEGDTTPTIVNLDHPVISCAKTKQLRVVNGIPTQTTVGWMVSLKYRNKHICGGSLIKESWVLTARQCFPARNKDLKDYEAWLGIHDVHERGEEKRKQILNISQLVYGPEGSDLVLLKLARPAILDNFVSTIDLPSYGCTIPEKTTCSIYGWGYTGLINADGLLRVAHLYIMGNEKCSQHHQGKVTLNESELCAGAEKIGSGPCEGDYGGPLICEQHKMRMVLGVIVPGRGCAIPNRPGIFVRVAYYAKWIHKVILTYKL
Sequence of dog serum albumin (P49822 25-608 limits assumed): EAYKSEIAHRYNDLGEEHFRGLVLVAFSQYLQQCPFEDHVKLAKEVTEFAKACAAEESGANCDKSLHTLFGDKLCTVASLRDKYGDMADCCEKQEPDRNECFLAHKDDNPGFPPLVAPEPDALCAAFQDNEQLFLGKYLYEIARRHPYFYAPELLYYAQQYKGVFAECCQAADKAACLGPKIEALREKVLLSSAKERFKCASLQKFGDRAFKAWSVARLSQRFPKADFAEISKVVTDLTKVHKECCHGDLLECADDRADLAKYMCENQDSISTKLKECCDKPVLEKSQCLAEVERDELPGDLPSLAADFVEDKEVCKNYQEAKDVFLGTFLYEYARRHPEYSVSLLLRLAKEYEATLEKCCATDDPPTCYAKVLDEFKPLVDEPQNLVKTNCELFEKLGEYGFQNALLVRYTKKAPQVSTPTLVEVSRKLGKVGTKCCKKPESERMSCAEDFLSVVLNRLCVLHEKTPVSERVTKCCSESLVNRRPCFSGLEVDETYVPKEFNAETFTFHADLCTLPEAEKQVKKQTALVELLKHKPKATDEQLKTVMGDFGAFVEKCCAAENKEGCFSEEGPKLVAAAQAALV
T4 sequence (P02768 25-609 limits assumed): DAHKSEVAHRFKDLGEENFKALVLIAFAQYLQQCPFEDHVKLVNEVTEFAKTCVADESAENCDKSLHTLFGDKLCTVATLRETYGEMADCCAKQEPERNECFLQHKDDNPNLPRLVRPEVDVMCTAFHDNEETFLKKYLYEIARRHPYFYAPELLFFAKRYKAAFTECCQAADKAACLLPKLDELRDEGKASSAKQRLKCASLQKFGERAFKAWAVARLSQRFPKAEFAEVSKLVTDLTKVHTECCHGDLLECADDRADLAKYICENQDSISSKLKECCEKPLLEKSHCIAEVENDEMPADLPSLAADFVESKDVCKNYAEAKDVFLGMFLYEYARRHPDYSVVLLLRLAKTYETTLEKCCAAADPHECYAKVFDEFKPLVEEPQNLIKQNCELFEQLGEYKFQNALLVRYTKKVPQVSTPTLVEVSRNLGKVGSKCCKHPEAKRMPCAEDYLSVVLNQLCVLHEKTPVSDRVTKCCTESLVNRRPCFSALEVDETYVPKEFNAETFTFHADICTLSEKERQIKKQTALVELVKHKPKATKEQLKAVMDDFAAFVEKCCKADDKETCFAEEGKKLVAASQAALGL
T6 sequence (P01127 82-190 limits assumed, chain 2 of 2, other chains not shown): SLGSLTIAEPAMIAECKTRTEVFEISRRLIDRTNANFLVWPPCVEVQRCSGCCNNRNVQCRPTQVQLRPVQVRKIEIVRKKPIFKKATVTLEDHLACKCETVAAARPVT
Sequence of rat serum albumin (P02770 25-608 limits assumed): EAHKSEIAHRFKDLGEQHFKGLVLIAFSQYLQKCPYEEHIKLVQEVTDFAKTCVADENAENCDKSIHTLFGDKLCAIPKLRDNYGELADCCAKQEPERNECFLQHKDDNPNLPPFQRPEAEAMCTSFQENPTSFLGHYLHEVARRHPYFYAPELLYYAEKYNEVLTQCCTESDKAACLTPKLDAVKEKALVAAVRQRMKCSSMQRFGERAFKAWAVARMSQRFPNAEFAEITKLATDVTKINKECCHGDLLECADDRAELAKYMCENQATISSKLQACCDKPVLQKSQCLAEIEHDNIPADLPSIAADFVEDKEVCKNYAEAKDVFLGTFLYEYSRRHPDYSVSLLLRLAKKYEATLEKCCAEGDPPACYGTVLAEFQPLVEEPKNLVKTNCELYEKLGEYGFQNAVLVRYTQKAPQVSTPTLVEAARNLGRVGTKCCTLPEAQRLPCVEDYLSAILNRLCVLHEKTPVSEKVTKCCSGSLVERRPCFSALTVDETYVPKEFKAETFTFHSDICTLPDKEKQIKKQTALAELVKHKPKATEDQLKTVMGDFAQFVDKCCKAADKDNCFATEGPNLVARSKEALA
Sequence of cynomolgus monkey serum albumin (A2V9Z4 25-608 limits assumed): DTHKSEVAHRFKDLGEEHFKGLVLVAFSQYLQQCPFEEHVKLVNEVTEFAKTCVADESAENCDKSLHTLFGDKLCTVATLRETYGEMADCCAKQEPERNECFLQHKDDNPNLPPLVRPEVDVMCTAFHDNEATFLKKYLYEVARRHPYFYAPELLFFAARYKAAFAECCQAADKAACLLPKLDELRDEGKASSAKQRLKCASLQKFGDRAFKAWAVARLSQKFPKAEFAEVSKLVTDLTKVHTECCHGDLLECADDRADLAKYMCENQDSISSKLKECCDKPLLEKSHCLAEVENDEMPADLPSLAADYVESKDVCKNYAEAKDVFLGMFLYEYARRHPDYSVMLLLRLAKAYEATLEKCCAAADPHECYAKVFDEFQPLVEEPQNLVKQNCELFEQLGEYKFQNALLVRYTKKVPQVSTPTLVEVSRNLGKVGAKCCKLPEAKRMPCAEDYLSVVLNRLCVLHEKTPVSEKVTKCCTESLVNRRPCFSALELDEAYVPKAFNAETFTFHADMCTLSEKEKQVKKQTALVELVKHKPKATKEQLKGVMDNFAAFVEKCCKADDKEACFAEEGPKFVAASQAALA

B1: Protein #134 (designed binder)
chain: GSDLGKKLLEAARAGQDDEVRELLKAGADVNAKDYFSHTPLHLAARNGHLKIVEVLLKAGADVNAKDFAGKTPLHLAANEGHLEIVEVLLKAGADVNAQDIFGKTPADIAADAGHEDIAEVLQKAAGSPTPTPTTPTPTPTTPTPTPTGSDLGKKLLEAARAGQDDEVRILLKAGADVNAKDRYGDTPLHLAADIGHLEIVEVLLKAGADVNAEDYFGNTPLHLAASYGHLEIVEVLLKAGADVNAKDDYGNTPLHLAANTGHLEIVEVLLKAGADVNAQDKSGKTPADLAADAGHEDIAEVLQKAAGSPTPTPTTPTPTPTTPTPTPTGSDLDKKLLEAARAGQDDEVRILLKAGADVNAKDSTGWTPLHLAAPWGHPEIVEVLLKAGADVNAKDFQGWTPLHLAAAAGHLEIVEVLLKAGADVNAQDKSGKTPADLAADAGHEDIAEVLQKAAGSPTPTPTTPTPTPTTPTPTPTGSDLGKKLLEAARAGQDDEVRELLKAGADVNAKDYFSHTPLHLAARNGHLKIVEVLLKAGADVNAKDFAGKTPLHLAANEGHLEIVEVLLKAGADVNAQDIFGKTPADIAADAGHEDIAEVLQKAA
notes: Four designed ankyrin repeat domains (serum albumin, HGF, VEGF-A, serum albumin); one molecule is used here
Inhibition of VEGF-A-induced HUVEC proliferation, IC50 (human VEGF-A [1]): 5.7 ng/ml and 91.3 pM | inhibition of proliferation of HUVECs, IC50 (human VEGF-A [1]): 0.1 to 0.15 nM | Inhibition of cMet phosphorylation in A549 cells, IC50 (human HGF [2]): 0.184 nM | inhibition of cMet phosphorylation in A549 cells, IC50 (human HGF [2]): < 1 nM | EC50 (human VEGF-A [3]): 0.024 nM | EC50 (mouse serum albumin): 0.015 nM | EC50 (rat serum albumin): 0.017 nM | EC50 (dog serum albumin): 0.023 nM | EC50 (mouse VEGF-A): 0.021 nM | EC50 (rat VEGF-A): 0.022 nM | EC50 (human HGF [4]): 0.024 nM | EC50 (cynomolgus monkey HGF): 0.04 nM | EC50 (mouse HGF): 0.045 nM | EC50 (human serum albumin): 0.013 nM | EC50 [5]: 0.017 nM | EC50 (human VEGF-A [6]): 0.024 nM | binding result (Human VEGF-C): no binding (tested: 100 nM to 0.01 pM) | binding result (Human PDGF-AB): no binding (tested: 100 nM to 0.01 pM) | IC50 (human HGF [7]): 0.92 nM | IC50 (human VEGF-A [8]): < 0.01 nM | IC50 [9]: 0.6 nM | IC50 (human VEGF-A [10]): 0.0045 nM

B2
binding result (human HGF [11]): no binding (tested: 100 nM)
